For 6 molecules, binding capacity (%) results are on record in patent publication US20100041597A1, “PEPTIDES TARGETED TO PROTEIN KINASE C ISOFORMS AND USES THEREOF” (priority 2005, published 2010).

For experiment [1], the target named is PKC-βI (purified isoform) (Homo sapiens (Human)) (UniProt P05771). As to the kind of experiment: competitive ELISA on purified PKC-βI vs anti-PKC-βI Ab; PRE 100 µM.
The target of experiment [2] is PKC-δ (purified isoform) (Homo sapiens (Human)) (UniProt Q05655). In words: competitive ELISA on purified PKC-δ vs anti-PKC-δ Ab; PRE 200 µM.
Chain of PKC-δ (purified isoform) (Homo sapiens (Human)) (Q05655 whole entry, stated change not applied, canonical isoform): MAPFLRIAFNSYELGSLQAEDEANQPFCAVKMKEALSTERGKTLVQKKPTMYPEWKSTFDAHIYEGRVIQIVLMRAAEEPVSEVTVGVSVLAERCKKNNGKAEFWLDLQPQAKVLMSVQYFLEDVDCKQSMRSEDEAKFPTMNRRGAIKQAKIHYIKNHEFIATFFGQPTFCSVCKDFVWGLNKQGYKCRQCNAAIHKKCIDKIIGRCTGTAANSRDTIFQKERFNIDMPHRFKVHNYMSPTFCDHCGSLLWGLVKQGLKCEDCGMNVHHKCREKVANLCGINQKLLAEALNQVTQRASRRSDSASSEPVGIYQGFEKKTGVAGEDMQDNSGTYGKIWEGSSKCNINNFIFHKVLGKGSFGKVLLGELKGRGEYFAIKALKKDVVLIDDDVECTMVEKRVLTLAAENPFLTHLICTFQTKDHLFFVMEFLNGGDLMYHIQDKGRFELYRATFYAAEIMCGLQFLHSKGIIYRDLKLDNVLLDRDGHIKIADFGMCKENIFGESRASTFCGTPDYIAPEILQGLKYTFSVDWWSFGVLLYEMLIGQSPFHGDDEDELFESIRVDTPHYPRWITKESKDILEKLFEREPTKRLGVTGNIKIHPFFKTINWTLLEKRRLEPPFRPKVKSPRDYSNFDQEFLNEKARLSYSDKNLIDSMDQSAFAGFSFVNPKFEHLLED
In experiment [3] the target is PKC-βI (purified isoform) (Homo sapiens (Human)) (UniProt P05771). As to the kind of experiment: competitive ELISA on purified PKC-βI vs anti-PKC-βI Ab; PRE 50 µM.
Experiment [4] addresses PKC-δ (purified isoform) (Homo sapiens (Human)) (UniProt Q05655). As to the kind of experiment: competitive ELISA on purified PKC-δ vs anti-PKC-δ Ab; PRE 50 µM.
Experiment [5] shares this target. In words: competitive ELISA on purified PKC-δ vs anti-PKC-δ Ab; PRE 100 µM.
Experiment [6] addresses PKC-βI (purified isoform) (Homo sapiens (Human)) (UniProt P05771). In words: competitive ELISA on purified PKC-βI vs anti-PKC-βI Ab; PRE 200 µM.
For experiment [7], the target named is PKC-βI (purified isoform) (Homo sapiens (Human)), P05771. Described as above. Conditions: remark: other sources report otherwise.
Chain of PKC-βI (purified isoform) (Homo sapiens (Human)), P05771 (P05771 2-671 limits assumed): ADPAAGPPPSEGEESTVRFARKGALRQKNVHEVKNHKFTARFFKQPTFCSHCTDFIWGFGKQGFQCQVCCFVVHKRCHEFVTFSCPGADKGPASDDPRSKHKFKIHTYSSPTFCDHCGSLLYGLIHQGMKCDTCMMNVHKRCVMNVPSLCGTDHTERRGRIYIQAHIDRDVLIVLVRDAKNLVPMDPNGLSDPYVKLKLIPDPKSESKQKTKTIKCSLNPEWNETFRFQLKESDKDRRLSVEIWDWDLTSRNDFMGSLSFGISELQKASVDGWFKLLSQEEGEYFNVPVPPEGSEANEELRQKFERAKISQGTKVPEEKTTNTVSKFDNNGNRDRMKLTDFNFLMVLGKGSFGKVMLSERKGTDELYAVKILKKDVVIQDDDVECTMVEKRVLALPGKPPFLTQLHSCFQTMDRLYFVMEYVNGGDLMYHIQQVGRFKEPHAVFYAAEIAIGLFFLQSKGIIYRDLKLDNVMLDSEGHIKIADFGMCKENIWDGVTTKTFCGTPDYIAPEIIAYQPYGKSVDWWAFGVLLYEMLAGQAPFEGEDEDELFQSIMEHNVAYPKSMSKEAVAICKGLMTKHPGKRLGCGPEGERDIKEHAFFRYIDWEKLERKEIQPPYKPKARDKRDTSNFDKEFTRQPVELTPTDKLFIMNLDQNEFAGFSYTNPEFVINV
Experiment [8] shares this target. As to the kind of experiment: competitive ELISA on purified PKC-βI vs anti-PKC-βI Ab; PRE 50 µM. Particulars: remark: other sources report otherwise.
For experiment [9] the target is unchanged. As to the kind of experiment: competitive ELISA on purified PKC-βI vs anti-PKC-βI Ab; PRE 100 µM. Conditions: remark: other sources report otherwise.
Experiment [10] has as its target PKC-ε (purified isoform) (Homo sapiens (Human)) (UniProt Q02156). As to the kind of experiment: competitive ELISA on purified PKC-ε vs anti-PKC-ε Ab; PRE 100 µM.
Experiment [11] has the same target. In words: competitive ELISA on purified PKC-ε vs anti-PKC-ε Ab; PRE 200 µM.
Experiment [12] has the same target. As to the kind of experiment: competitive ELISA on purified PKC-ε vs anti-PKC-ε Ab; PRE 50 µM.
Experiment [13] has as its target PKC-βII (purified isoform) (Homo sapiens (Human)) (UniProt P05771). In words: competitive ELISA on purified PKC-βII vs anti-PKC-βII Ab; PRE 100 µM.
The target is the same in experiment [14]. As to the kind of experiment: competitive ELISA on purified PKC-βII vs anti-PKC-βII Ab; PRE 200 µM.
Experiment [15] has the same target. In words: competitive ELISA on purified PKC-βII vs anti-PKC-βII Ab; PRE 50 µM.

Chain of PKC-ε (purified isoform) (Homo sapiens (Human)) (Q02156 whole entry, canonical isoform): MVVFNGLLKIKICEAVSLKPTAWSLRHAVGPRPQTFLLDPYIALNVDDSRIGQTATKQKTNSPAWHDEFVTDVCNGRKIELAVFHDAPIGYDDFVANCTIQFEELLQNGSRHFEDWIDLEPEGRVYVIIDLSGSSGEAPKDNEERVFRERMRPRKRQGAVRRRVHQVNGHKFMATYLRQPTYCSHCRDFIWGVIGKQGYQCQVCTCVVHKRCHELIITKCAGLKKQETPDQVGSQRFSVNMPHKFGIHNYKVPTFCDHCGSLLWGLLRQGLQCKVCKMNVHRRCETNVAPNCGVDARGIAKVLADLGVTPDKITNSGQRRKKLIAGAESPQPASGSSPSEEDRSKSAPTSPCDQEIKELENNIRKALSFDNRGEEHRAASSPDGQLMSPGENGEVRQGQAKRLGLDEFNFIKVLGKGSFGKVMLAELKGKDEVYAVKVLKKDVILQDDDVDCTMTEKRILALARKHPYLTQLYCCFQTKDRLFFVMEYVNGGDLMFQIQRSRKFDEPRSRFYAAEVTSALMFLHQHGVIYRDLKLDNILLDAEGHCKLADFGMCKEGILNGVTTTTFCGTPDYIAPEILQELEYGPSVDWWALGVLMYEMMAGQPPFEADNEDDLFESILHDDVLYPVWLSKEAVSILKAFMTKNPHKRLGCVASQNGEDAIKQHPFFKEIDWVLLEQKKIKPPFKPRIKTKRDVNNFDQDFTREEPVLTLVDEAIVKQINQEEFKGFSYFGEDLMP
Chain of PKC-βII (purified isoform) (Homo sapiens (Human)) (P05771 other isoform, or with tags, fused parts or gaps limits assumed): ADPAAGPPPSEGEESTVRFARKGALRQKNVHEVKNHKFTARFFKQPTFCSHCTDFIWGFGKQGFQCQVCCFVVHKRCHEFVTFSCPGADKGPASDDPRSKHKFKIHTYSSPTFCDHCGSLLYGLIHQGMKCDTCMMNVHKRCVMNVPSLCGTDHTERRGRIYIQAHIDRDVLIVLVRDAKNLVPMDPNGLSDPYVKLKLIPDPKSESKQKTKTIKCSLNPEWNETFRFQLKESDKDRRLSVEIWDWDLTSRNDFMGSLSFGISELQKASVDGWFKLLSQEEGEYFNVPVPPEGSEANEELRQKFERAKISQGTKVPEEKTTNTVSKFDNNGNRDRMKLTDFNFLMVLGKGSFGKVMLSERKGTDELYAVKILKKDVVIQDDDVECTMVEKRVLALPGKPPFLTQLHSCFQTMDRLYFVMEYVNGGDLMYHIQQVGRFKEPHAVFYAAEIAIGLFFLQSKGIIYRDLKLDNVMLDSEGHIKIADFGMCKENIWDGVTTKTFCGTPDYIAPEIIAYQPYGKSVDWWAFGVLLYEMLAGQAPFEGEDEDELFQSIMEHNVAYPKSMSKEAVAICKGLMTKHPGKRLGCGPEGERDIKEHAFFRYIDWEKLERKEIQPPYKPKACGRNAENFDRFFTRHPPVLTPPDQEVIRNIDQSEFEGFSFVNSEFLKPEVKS
Chain of PKC-βI (purified isoform) (Homo sapiens (Human)) (P05771 2-671 limits assumed): as the sequence (P05771 2-671 limits assumed) above

Turning to Ac-ISIGILNQADK-NH2 [PRE 10], the binding capacity (%) in [1] stood at 4.35%; in experiment [2] it was 9.47%; in experiment [3], 3.77%; in [4], 0%; in [5], 0%; in experiment [6] it was 0%.
Ac-AKGIQEVKGGKDAQNLIGISI-NH2 [PRE 5]: the binding capacity (%) in [1], in experiment [3] and in experiment [6] was 0% throughout.
As to ILEDKGGDAQNLIGISI [PRE 8], the binding capacity (%) in experiment [7], in experiment [8] and in [9] was 0% throughout.
In the case of RRKKGGKDFVVKR [PRE 1], the binding capacity (%) was found to be 5.47% in [10], 0.83% in experiment [11] and 19.8% in experiment [12].
On to Ac-RDAQNLIGISI-NH2 [PRE 11], for which the binding capacity (%) in experiment [1] was found to be 14.2%; in experiment [13], 11%; in experiment [14] it was 6.4%; in experiment [3] it was 9.86%; in [15], 7.14%; in [6] it was 12.5%.
Take Ac-ISIGILQNADK-NH2 [PRE 7]: the results for the binding capacity (%) in experiment [13], in experiment [14] and in experiment [15] were 11.1%, 2.59% and 5.42%, respectively.
